Laboratory results from patent US8465945B2, “Method for production and use of mite group 1 proteins” (Merck Patent GmbH, priority 1999, dated 2013).

System: IgE from mite-allergic or normal human sera
Test: ELISA, binding of IgE from human sera to coated Der f 1 proteins or mite extracts, detected with FcεR1α-biotin
Conditions: Table 3, PDerf1303b preparation number A166-26, PDerf1223b preparation 1000-7

B1: PDerf1223b: Recombinant mature form of Der f 1 (SEQ ID NO:32) expressed by P. pastoris from nDerf1669b (protein, listed as Dermatophagoides farinae)
chain: TSACRINSVNVPSELDLRSLRTVTPIRMQGGCGSCWAFSGVAATESAYLAYRNTSLDLSEQELVDCASQHGCHGDTIPRGIEYIQQNGVVEERSYPYVAREQRCRRPNSQHYGISNYCQIYPPDVKQIREALTQTHTAIAVIIGIKDLRAFQHYDGRTIIQHDNGYQPNYHAVNIVGYGSTQGVDYWIVRNSWDTTWGDSGYGYFQAGNNLMMIEQYPYVVIM
OD, bound IgE (sera 429): 63 OD multiplied by 1000
OD, bound IgE (sera 1916): 0 OD multiplied by 1000
OD, bound IgE (sera 3848): 1253 OD multiplied by 1000
OD, bound IgE (sera 3958): 1224 OD multiplied by 1000
OD, bound IgE (sera 3960): 634 OD multiplied by 1000
OD, bound IgE (sera 3961): 301 OD multiplied by 1000
OD, bound IgE (sera 3987): 1078 OD multiplied by 1000
OD, bound IgE (sera 4467): 432 OD multiplied by 1000
OD, bound IgE (sera 5207): 1096 OD multiplied by 1000
OD, bound IgE (sera human pool): 774 OD multiplied by 1000
